# Reference: patent publication US20030186329
# How the values were obtained:
# peptide LGGSGRSANAILE [1] = system: T1, peptide LGGSGRSANAILE; test: kinetics of peptide hydrolysis by u-PA, HPLC, Eadie-Hofstee
# T1 sequence: LGGSGRSANAILE
# [2] = system: phage clone 40, displaying hexamer RSSSSH
# [3] = system: T2, peptide (III) of Table 1, LGGSGERARGALE
# T2 sequence: LGGSGERARGALE
# peptide LGGSGRNAQVRLE [4] = system: T3, peptide LGGSGRNAQVRLE
# T3 sequence: LGGSGRNAQVRLE
# [5] = system: phage 33, displaying hexamer RSANAI
# peptide SGRSA [6] = system: T4, peptide SGRSA
# T4 sequence: SGRSA
# peptide LGQRGRSANAILE [7] = system: T5, peptide LGQRGRSANAILE
# T5 sequence: LGQRGRSANAILE
# peptide LGGSGRSANAILE [8] = system: T1, peptide LGGSGRSANAILE
# [9] = system: phage clone 36, displaying hexamer RSAKVD
# peptide LGGRGRSANAILE [10] = system: T6, peptide LGGRGRSANAILE
# T6 sequence: LGGRGRSANAILE
# [11] = system: T7, peptide (V) of Table 1, YGRS
# T7 sequence: YGRS
# [12] = system: T8, peptide (II) of Table 1, LGGSGQRGRKALE
# T8 sequence: LGGSGQRGRKALE
# [13] = system: phage clone 35, displaying hexamer RSATRD
# [14] = system: phage clone 34, displaying hexamer RNAQVR
# [15] = system: T9, peptide (VI) of Table 1, RGRK
# T9 sequence: RGRK
# peptide LGGSGRSATRDLE [16] = system: T10, peptide LGGSGRSATRDLE
# T10 sequence: LGGSGRSATRDLE
# peptide LGGYGRSANAILE [17] = system: T11, peptide LGGYGRSANAILE
# T11 sequence: LGGYGRSANAILE
# [18] = biological target: fusion of maltose binding protein, QRGRSA and the HY4 gene product of Arabidopsis thaliana (UniProt Q43125)
# Chain of fusion of maltose binding protein, QRGRSA and the HY4 gene product of Arabidopsis thaliana (Q43125 other isoform, or with tags, fused parts or gaps): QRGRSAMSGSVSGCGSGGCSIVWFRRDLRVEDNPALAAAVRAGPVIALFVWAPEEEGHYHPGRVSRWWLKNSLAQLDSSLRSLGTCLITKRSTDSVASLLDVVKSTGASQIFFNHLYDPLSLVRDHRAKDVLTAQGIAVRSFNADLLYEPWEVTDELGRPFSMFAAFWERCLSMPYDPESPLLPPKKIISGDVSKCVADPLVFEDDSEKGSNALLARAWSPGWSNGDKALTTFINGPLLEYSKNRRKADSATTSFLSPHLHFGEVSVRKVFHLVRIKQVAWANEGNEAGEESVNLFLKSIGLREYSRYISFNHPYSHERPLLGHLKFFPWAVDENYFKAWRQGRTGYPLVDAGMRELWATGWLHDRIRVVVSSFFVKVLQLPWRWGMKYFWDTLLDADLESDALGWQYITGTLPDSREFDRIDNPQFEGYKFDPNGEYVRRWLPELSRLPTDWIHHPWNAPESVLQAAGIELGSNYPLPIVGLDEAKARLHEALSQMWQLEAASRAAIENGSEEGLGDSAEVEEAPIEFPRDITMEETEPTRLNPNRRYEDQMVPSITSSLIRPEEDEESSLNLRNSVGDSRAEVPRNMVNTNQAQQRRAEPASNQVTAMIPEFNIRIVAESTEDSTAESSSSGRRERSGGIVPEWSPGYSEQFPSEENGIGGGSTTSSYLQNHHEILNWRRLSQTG
# peptide LGGSGRKASLSLE [19] = system: T12, peptide LGGSGRKASLSLE
# T12 sequence: LGGSGRKASLSLE
# [20] = system: phage clone 37, displaying hexamer RKASLS
# [21] = system: T13, peptide (VII) of Table 1, FRGRK
# T13 sequence: FRGRK
# peptide GSGKS [22] = system: T14, peptide GSGKS
# T14 sequence: GSGKS
# peptide SGRS [23] = system: T15, peptide SGRS
# T15 sequence: SGRS
# [24] = system: phage clone 39, displaying hexamer RSAVVK
# [25] = system: T16, peptide (I), native cleavage sequence from plasminogen
# T16 sequence: KKSPGRVVGGSVAH
# [26] = system: T17, peptide (IV) of Table 1, LGGSGHYGRSGLE
# T17 sequence: LGGSGHYGRSGLE
# [27] = system: phage clone 38, displaying hexamer RRAVSN
# peptide SGKS [28] = system: T18, peptide SGKS
# T18 sequence: SGKS
# [29] = system: T2, peptide (III) of Table 1, LGGSGERARGALE; test: kinetics of peptide hydrolysis by the enzyme, HPLC, Eadie-Hofstee
# peptide LGGSGRNAQVRLE [30] = system: T3, peptide LGGSGRNAQVRLE; test: as above
# peptide LGQRGRSANAILE [31] = system: T5, peptide LGQRGRSANAILE; test: as above
# peptide LGGSGRSANAILE [32] = system: T1, peptide LGGSGRSANAILE; test: as above
# peptide LGGRGRSANAILE [33] = system: T6, peptide LGGRGRSANAILE; test: as above
# [34] = system: T8, peptide (II) of Table 1, LGGSGQRGRKALE; test: as above
# peptide LGGSGRSATRDLE [35] = system: T10, peptide LGGSGRSATRDLE; test: as above
# peptide LGGYGRSANAILE [36] = system: T11, peptide LGGYGRSANAILE; test: as above
# peptide LGGSGRKASLSLE [37] = system: T12, peptide LGGSGRKASLSLE; test: as above
# [38] = system: T16, peptide (I), native cleavage sequence from plasminogen; test: as above
# [39] = system: T17, peptide (IV) of Table 1, LGGSGHYGRSGLE; test: as above
# peptide SGRSA [40] = system: T4, peptide SGRSA; test: kinetics of peptide hydrolysis by the enzyme, HILIC HPLC, Eadie-Hofstee
# [41] = system: T7, peptide (V) of Table 1, YGRS; test: as above
# [42] = system: T9, peptide (VI) of Table 1, RGRK; test: as above
# [43] = system: T13, peptide (VII) of Table 1, FRGRK; test: as above
# peptide GSGKS [44] = system: T14, peptide GSGKS; test: as above
# peptide SGRS [45] = system: T15, peptide SGRS; test: as above
# peptide SGKS [46] = system: T18, peptide SGKS; test: as above
substance,measurement,setting,value
urokinase-type plasminogen activator (u-PA),fold reduction of Km against control peptide (I),peptide LGGSGRSANAILE [1],reduced by a factor of 5.6
same,dot blot analysis under the most stringent conditions of digestion,[2],proved to be particularly labile u-PA substrates
same,kcat,[3],0.004 s⁻¹
same,kcat/Km,[3],4 M⁻¹ s⁻¹
same,kcat,peptide LGGSGRNAQVRLE [4],3.69 s⁻¹
same,kcat/Km,peptide LGGSGRNAQVRLE [4],3200 M⁻¹ s⁻¹
same,dot blot analysis under the most stringent conditions of digestion,[5],proved to be particularly labile u-PA substrates
same,kcat,peptide SGRSA [6],3.7 s⁻¹
same,kcat/Km,peptide SGRSA [6],1200 M⁻¹ s⁻¹
same,kcat,peptide LGQRGRSANAILE [7],0.068 s⁻¹
same,kcat/Km,peptide LGQRGRSANAILE [7],45 M⁻¹ s⁻¹
same,fold improvement as substrate against control peptide (I),peptide LGGSGRSANAILE [8],by factors of 840-5300
same,fold increase of kcat against control peptide (I),peptide LGGSGRSANAILE [8],increased by a factor of more than 940
same,kcat,peptide LGGSGRSANAILE [8],2.83 s⁻¹
same,kcat/Km,peptide LGGSGRSANAILE [8],4700 M⁻¹ s⁻¹
same,dot blot analysis under the most stringent conditions of digestion,[9],proved to be particularly labile u-PA substrates
same,kcat,peptide LGGRGRSANAILE [10],0.08 s⁻¹
same,kcat/Km,peptide LGGRGRSANAILE [10],67 M⁻¹ s⁻¹
same,kcat,[11],2.6 s⁻¹
same,kcat/Km,[11],230 M⁻¹ s⁻¹
same,kcat,[12],0.02 s⁻¹
same,kcat/Km,[12],9.2 M⁻¹ s⁻¹
same,dot blot analysis under the most stringent conditions of digestion,[13],proved to be particularly labile u-PA substrates
same,dot blot analysis under the most stringent conditions of digestion,[14],proved to be particularly labile u-PA substrates
same,kcat,[15],0.76 s⁻¹
same,kcat/Km,[15],16 M⁻¹ s⁻¹
same,fold improvement as substrate against control peptide (I),peptide LGGSGRSATRDLE [16],by factors of 840-5300
same,kcat,peptide LGGSGRSATRDLE [16],0.54 s⁻¹
same,kcat/Km,peptide LGGSGRSATRDLE [16],740 M⁻¹ s⁻¹
same,kcat,peptide LGGYGRSANAILE [17],0.7 s⁻¹
same,kcat/Km,peptide LGGYGRSANAILE [17],318 M⁻¹ s⁻¹
same,"cleavage of fusion protein, SDS-PAGE",[18],whereas u-PA did not
same,kcat,peptide LGGSGRKASLSLE [19],1.14 s⁻¹
same,kcat/Km,peptide LGGSGRKASLSLE [19],1010 M⁻¹ s⁻¹
same,dot blot analysis under the most stringent conditions of digestion,[20],proved to be particularly labile u-PA substrates
same,kcat,[21],0.14 s⁻¹
same,kcat/Km,[21],16 M⁻¹ s⁻¹
same,kcat,peptide GSGKS [22],0.82 s⁻¹
same,kcat/Km,peptide GSGKS [22],193 M⁻¹ s⁻¹
same,kcat,peptide SGRS [23],2.3 s⁻¹
same,kcat/Km,peptide SGRS [23],1100 M⁻¹ s⁻¹
same,dot blot analysis under the most stringent conditions of digestion,[24],proved to be particularly labile u-PA substrates
same,kcat,[25],0.003 s⁻¹
same,kcat/Km,[25],0.88 M⁻¹ s⁻¹
same,kcat,[26],0.059 s⁻¹
same,kcat/Km,[26],15 M⁻¹ s⁻¹
same,dot blot analysis under the most stringent conditions of digestion,[27],proved to be particularly labile u-PA substrates
same,fold decrease of catalytic efficiency against peptide (VI) SGRS,peptide SGKS [28],by a factor of 7 for u-PA
same,kcat,peptide SGKS [28],1.22 s⁻¹
same,kcat/Km,peptide SGKS [28],154 M⁻¹ s⁻¹
same,Km,[29],970 µM
same,Km,peptide LGGSGRNAQVRLE [30],1160 µM
same,Km,peptide LGQRGRSANAILE [31],1500 µM
same,Km,peptide LGGSGRSANAILE [32],603 µM
same,Km,peptide LGGRGRSANAILE [33],1200 µM
same,Km,[34],2180 µM
same,Km,peptide LGGSGRSATRDLE [35],733 µM
same,Km,peptide LGGYGRSANAILE [36],2200 µM
same,Km,peptide LGGSGRKASLSLE [37],1130 µM
same,Km,[38],3400 µM
same,Km,[39],3800 µM
same,Km,peptide SGRSA [40],3100 µM
same,Km,[41],11400 µM
same,Km,[42],46500 µM
same,Km,[43],8600 µM
same,Km,peptide GSGKS [44],4250 µM
same,Km,peptide SGRS [45],2100 µM
same,Km,peptide SGKS [46],7900 µM
